Tested on: MS2 coat protein
Test: apparent KD of MS2 coat protein; designed switch direction (-1 OFF switch, 1 ON switch): -1; higher = weaker reporter binding
How it was run: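 The buffer was Tris-HCl pH 7.5 with KCl, MgCl2, BSA, DTT, tRNA and Tween-20. In it, SNAP-549-labelled MS2 coat protein was titrated in doubling steps from 0.7 or 1.5 nM to 3 µM over chip-bound RNA switches transcribed by stalled E. coli RNA polymerase on Illumina chips. Apparent KD is the per-design median over clusters of curve fits to normalised fluorescence.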

[1] = Eterna round: R95, input ligand: FMN 200 uM
[2] = Eterna round: R95, input ligand: microRNA oligo, concentration not stated
[3] = Eterna round: R95, input ligand: none
[4] = input ligand: microRNA oligo, concentration not stated

## GUGUGCAGAGGAUAUACAUAGGAAAAUAAAAGAGAAGUGGGACAUGAGGAUCACCCAUGUAGAAGGCUGAGUGU [Excluse me!! 22 - Jieux - Exclusion 2] (puzzle: Exclusion 2)
[1]
  apparent KD of MS2 coat protein: 89.9 nM
[2]
  apparent KD of MS2 coat protein: 73.7 nM
[3]
  apparent KD of MS2 coat protein: 72.8 nM

## AUAAAGCGAGGAUAUACAUGAGGAUCACCCAUGUGGCAGCCAGGUAGGAGUGACGUCGGUAGAAGGCGCACCCU [Quleraer] (puzzle: Exclusion 3)
[2]
  apparent KD of MS2 coat protein: 24.2 nM

## AGCGCCAUCGUGAGAUGGCGUAUUACAUGAGGAUCACCCAUGUAGGAUAUCGAUUGCUUUGCAGUCGAGAAGGACAUGUUCUUC [JL ENG3 3.80 Mod C] (Eterna round: R96, puzzle: Exclusion NG 3)
Input ligand: FMN 200 uM
  apparent KD of MS2 coat protein: 66 nM
[4]
  apparent KD of MS2 coat protein: 16 nM
Input ligand: none
  apparent KD of MS2 coat protein: 23.2 nM

## UCAUGUAUGUAGGAUAUCGAUGUCGAAAGACAUCGAGAAGGACGUACAUGAGGAUCACCCAUGUAACUUGCAUG [Exclusion 6 - B - 11:a] (puzzle: Exclusion 6)
[1]
  apparent KD of MS2 coat protein: 12.9 nM
[2]
  apparent KD of MS2 coat protein: 18.8 nM
[3]
  apparent KD of MS2 coat protein: 12.9 nM

## AGUUGGCGAGGAUAUACAUGAGGAUCACCCAUGUGAAAUAUAAGAGUGAGGAAGAAAAGUAGAAGGCGCUGACA [Mat - Exclusion 3 - Mod of Salish D43] (puzzle: Exclusion 3)
[2]
  apparent KD of MS2 coat protein: 80.4 nM

## CUACUGAAGCUUUGCUUUAGUCGACAUGAGGAUCACCCAUGUUAGGAUAUGGUAGGCUUUGCUUACUAGAAGGAUAGAGUGAUC [salish99_ExNG3_r04_603] (Eterna round: R96, puzzle: Exclusion NG 3)
Input ligand: FMN 200 uM
  apparent KD of MS2 coat protein: 121 nM
[4]
  apparent KD of MS2 coat protein: 55.9 nM
Input ligand: none
  apparent KD of MS2 coat protein: 54.8 nM

## UGAUCCCAUGUCAGGAUAUAGAGGCGGUAGCCUGGCUAGAAGGGACAUGAGGAUCACCCAUGUCGGUUCUUGCC (puzzle: Brourd's mod of Exclusion 4)
[2]
  apparent KD of MS2 coat protein: 30.6 nM

## UUGUUACAUGAGGAUCACCCAUGUGAGGAUAUGGCCCGCCCGGCGUGAGCUGGUUUUGUCAGAAGGCGCAUAGG [salish99_ex1_r4_024] (Eterna round: R97, puzzle: Exclusion 1)
Input ligand: FMN 200 uM
  apparent KD of MS2 coat protein: 79.6 nM
Input ligand: none
  apparent KD of MS2 coat protein: 54.2 nM

## UGUUGUCGCGCAGGAUAUGUAUGAGGAUCACCCAUUAAUAAAUUUUAACCACGAGGAUCACCCGUGUAGAAGGGCGCGACAACA [pwkr exNG2 2xF5 1xFMN.17] (Eterna round: R96, puzzle: Exclusion NG 2)
Input ligand: FMN 200 uM
  apparent KD of MS2 coat protein: 36.6 nM
[4]
  apparent KD of MS2 coat protein: 19.7 nM
Input ligand: none
  apparent KD of MS2 coat protein: 33.1 nM

## GUACUGACAGGAUAUACAUGAGGAUCACCCAUGUGCCUUAAUGCUACAAAAGUAGCGAGUAGAAGGGUCUGUAC [Omei Ex3 Model Bachelor's Dilema v12] (Eterna round: R97, puzzle: Exclusion 3)
Input ligand: FMN 200 uM
  apparent KD of MS2 coat protein: 119 nM
Input ligand: none
  apparent KD of MS2 coat protein: 20.7 nM

## CUCCGGCGUGUAGGAUAUGGAUCCGAUUAGGAUCCAGAAGGACAUGAGGAUCACCCAUGUACAUGUAAACAGUCGUCACCGGGC [salish99_ExNG1_r04_206] (Eterna round: R96, puzzle: Exclusion NG 1)
Input ligand: FMN 200 uM
  apparent KD of MS2 coat protein: 75.9 nM
[4]
  apparent KD of MS2 coat protein: 14 nM
Input ligand: none
  apparent KD of MS2 coat protein: 18.1 nM

## AAUUUCAUUGUGAGGAUAUGCCCAAAUAAAAGCGGGCAGAAGGCACAUGAGGAUCACCCAUGUCCUGCGGUUAU [salish99_bmx4_r4_152] (Eterna round: R97, puzzle: Brourd's mod of Exclusion 4)
Input ligand: FMN 200 uM
  apparent KD of MS2 coat protein: 471 nM
Input ligand: none
  apparent KD of MS2 coat protein: 37.5 nM

## CGAUGUUAUGUCAGGAUAUGCGUUGCGAAAGCAAUGUAGAAGGGACAUGAGGAUCACCCAUGUCCUAACCAUCG [Omei A 8] (puzzle: Brourd's mod of Exclusion 4)
[1]
  apparent KD of MS2 coat protein: 15.1 nM
[2]
  apparent KD of MS2 coat protein: 13 nM
[3]
  apparent KD of MS2 coat protein: 13.5 nM

## GCAUGGAAAGUGAGGAUAUACCACUGGAUACAGUGGUAGAAGGCACAUGAGGAUCACCCAUGUUCCUACCAUGC [Fiskers BMX 4 - 39] (puzzle: Brourd's mod of Exclusion 4)
[2]
  apparent KD of MS2 coat protein: 15 nM

## CCGUGCACGCUGCGGUCCUACAUGAGGAUCACCCAUGUGGUCUGGUGGCGUGGGUCGCCGGACUUGGCUCGUCUUGA [salish99_S_TOV1_R5_021] (Eterna round: R97, puzzle: Sensor, turn-off variant 1)
Input ligand: FMN 200 uM
  apparent KD of MS2 coat protein: 18.8 nM
Input ligand: none
  apparent KD of MS2 coat protein: 19.2 nM

## CGUGACUCAGGAUAUCUAUAAUAUCACAUGAGGAUCACCCAUGUCCAGCAAUAGCUGGAGGGAGAAGGGAGUCACG [Fiskers Ex 5 - 40] (puzzle: Exclusion 5)
[2]
  apparent KD of MS2 coat protein: 195 nM

## CGUCUGUGAGGAUAUGGUAUCGUUUACAUGAGGAUCACCCAUGUUACAUGGGACUAGAGACUAGAAGGUACUGACG [EX5 #47] (Eterna round: R97, puzzle: Exclusion 5)
Input ligand: FMN 200 uM
  apparent KD of MS2 coat protein: 628 nM
Input ligand: none
  apparent KD of MS2 coat protein: 878 nM

## CCAAGAAUAGGAUAUACACCAUGUCAGCUUCUAUACAACGCACAUGAGGAUCACCCAUGUAGAAGGGUUCUCUC [Exclusion-2-#3] (Eterna round: R97, puzzle: Exclusion 2)
Input ligand: FMN 200 uM
  apparent KD of MS2 coat protein: 386 nM
Input ligand: none
  apparent KD of MS2 coat protein: 433 nM

## CUUAGUUGGUAAGGAUAUCCUACAUUAUUCUGACCCGUGCAAGCUACAUGAGGAUCACCCAUGUGGGAGAAGGUGCGUUAACGU [Design 7] (Eterna round: R96, puzzle: Exclusion NG 2)
Input ligand: FMN 200 uM
  apparent KD of MS2 coat protein: 53.5 nM
[4]
  apparent KD of MS2 coat protein: 42.1 nM
Input ligand: none
  apparent KD of MS2 coat protein: 46 nM

## CCGCAGCGGUAGGAUAUUAUGACGUCAUGGGCAUAAGAAGGACCGACAUGAGGAUCACCCAUGUUGGGUGCCCG [EX6 C.24] (Eterna round: R97, puzzle: Exclusion 6)
Input ligand: FMN 200 uM
  apparent KD of MS2 coat protein: 33.7 nM
Input ligand: none
  apparent KD of MS2 coat protein: 21.7 nM

## GUGUAGUCAGGAUAUACAGAGGAAGAUAAUACAAUAUAAGUACAUGAGGAUCACCCAUGUAGAAGGGACAGUGU [Excluse me!! 10 - Jieux - Exclusion 2] (puzzle: Exclusion 2)
[2]
  apparent KD of MS2 coat protein: 25.7 nM

## UACAUGAGGAUCACCCAUGUUUUGUCGUGUAUGGUAUUUAUCUAGGAUAUCAAUGUAUUUAAUUAUGAGAAGGAGAAUAUUAAU [JMF's solution 45] (Eterna round: R96, puzzle: Exclusion NG 3)
Input ligand: FMN 200 uM
  apparent KD of MS2 coat protein: 45.4 nM
[4]
  apparent KD of MS2 coat protein: 29.6 nM
Input ligand: none
  apparent KD of MS2 coat protein: 44.6 nM

## AAAAAGUCAGGAUAUGCGAAGGCGUCUGAUAGACGAGGCUAGCAGAAGGGACAUGAGGAUCACCCAUGUAAAGA [Mat - Exclusion 4 - D82] (Eterna round: R96, puzzle: Exclusion 4)
[4]
  apparent KD of MS2 coat protein: 19.4 nM

## GCCUUAUCCGUCAGGAUAUACAGCCGCUCCCUGUUGUAGAAGGGACAUGAGGAUCACCCAUGUACGUACCACCC [alecazam9] (Eterna round: R97, puzzle: Brourd's mod of Exclusion 4)
Input ligand: FMN 200 uM
  apparent KD of MS2 coat protein: 29.1 nM
Input ligand: none
  apparent KD of MS2 coat protein: 31.1 nM

## GGAAAGUGAGGAUAUGGUAAAGUAAGUAUGUAGUAAGUAAUCCAGAAGGCACAUGAGGAUCACCCAUGUAAAUG [Mat - Exclusion 4 - D100] (puzzle: Exclusion 4)
[2]
  apparent KD of MS2 coat protein: 27.2 nM

## GCGGCGUAUGUAGGAUAUCGGUCAGUUUCUGAUCGAGAAGGACAUGAGGAUCACCCAUGUAAAUUACCGACUUUGUCGGGCCGC [JL ENG1 3.66] (Eterna round: R96, puzzle: Exclusion NG 1)
Input ligand: FMN 200 uM
  apparent KD of MS2 coat protein: 20.4 nM
[4]
  apparent KD of MS2 coat protein: 13.5 nM
Input ligand: none
  apparent KD of MS2 coat protein: 17.7 nM

## UAUUUGCAAGGAUAUGAUUUAAGUAACAUGAGGAUCACCCAUGUUUAUCCGUUGUUAUGUUCAGAAGGUGCGUGAU [JR_E5_Sub019] (puzzle: Exclusion 5)
[2]
  apparent KD of MS2 coat protein: 50.2 nM

## CAGCUGAAUGUGAGGAUAUCUAGAGCCUCGGCUCUAGAGAAGGCACAUGAGGAUCACCCAUGUCUCAACAGCUG [BmEx4/2-A2] (Eterna round: R97, puzzle: Brourd's mod of Exclusion 4)
Input ligand: FMN 200 uM
  apparent KD of MS2 coat protein: 249 nM
Input ligand: none
  apparent KD of MS2 coat protein: 35.9 nM

## UAGGCGUAAGGAUAUAUCUUUGGACGAGCGAGGGACCAGAGAUAGAAGGUACAUGAGGAUCACCCAUGUGGGUC [Eternabot (L1) Solution 41] (Eterna round: R97, puzzle: Exclusion 4)
Input ligand: FMN 200 uM
  apparent KD of MS2 coat protein: 189 nM
Input ligand: none
  apparent KD of MS2 coat protein: 64.9 nM

## AAAGUGUGAGGAUAUCCGGGACUGGGCCGGGAGGUUCGGAAGGAGAAGGCACAUGAGGAUCACCCAUGUAACGG [Excls4-X] (puzzle: Exclusion 4)
[2]
  apparent KD of MS2 coat protein: 46.9 nM

## AGCUGUGGCCGAGGAUAUCUAUCUCAUAAAACCGAAAUAUAAUCGGACAUGAGGAUCACCCAUGUAGAGAAGGCGGUCUCAGCA [Eli eng2 - 095] (Eterna round: R96, puzzle: Exclusion NG 2)
[4]
  apparent KD of MS2 coat protein: 20.1 nM

## UCACGCACUGUUAGGAUAUGUAUUAUGAAGGUAGUACAGAAGGAACAUGAGGAUCACCCAUGUAAUCCUGGGUG [Eternabot (L1) Solution 61] (Eterna round: R97, puzzle: Brourd's mod of Exclusion 4)
Input ligand: FMN 200 uM
  apparent KD of MS2 coat protein: 726 nM
Input ligand: none
  apparent KD of MS2 coat protein: 93.1 nM

## GAGUGGCAAGGAUAUACAGAGGAGAGGAAGGCAAGAGGUGGACAUGAGGAUCACCCAUGUAGAAGGUGCAGAGG [JR_Exclu2_Sub025] (puzzle: Exclusion 2)
[1]
  apparent KD of MS2 coat protein: 157 nM
[2]
  apparent KD of MS2 coat protein: 134 nM
[3]
  apparent KD of MS2 coat protein: 288 nM

## GAUUAUGCGAGCUUUAGGGACAUGAGGAUCACCCAUGUUCGUCUUAUUGAUCUAGGUACACUGACAUACCUAAAUCU [JMF 66] (puzzle: Sensor v3, turn-off variant 1)
[1]
  apparent KD of MS2 coat protein: 23.7 nM
[2]
  apparent KD of MS2 coat protein: 39.9 nM
[3]
  apparent KD of MS2 coat protein: 24.5 nM

## UAGUGGGUACGAAGGAGUAGUUUGAGCGUACGUUCUGUAACAUGAGGAUCACCCAUGUAGCUUUUUGCUCGACUUAU [JR_SV3TOV2_Sub037] (puzzle: Sensor v3, turn-off variant 2)
[1]
  apparent KD of MS2 coat protein: 28.9 nM
[2]
  apparent KD of MS2 coat protein: 55.7 nM
[3]
  apparent KD of MS2 coat protein: 29.4 nM

Source: the supplement of paper PMC9170038
